Measurements published in patent publication US20240108766A1 (Bayer, published 2024).

Key:
[1] = biological target: T1, human LRRC15 extracellular domain with C-terminal His tag (human, UniProt Q8TF66 22-538); test: SPR Biacore T200, 25°C, antibody captured, LRRC15 analyte
T1 construct: Recombinant, made in HEK293; the entry holds the extracellular domain and the His tag; SPR analyte; also called TPP-1545; hLRRC15 CT-His
T1 sequence: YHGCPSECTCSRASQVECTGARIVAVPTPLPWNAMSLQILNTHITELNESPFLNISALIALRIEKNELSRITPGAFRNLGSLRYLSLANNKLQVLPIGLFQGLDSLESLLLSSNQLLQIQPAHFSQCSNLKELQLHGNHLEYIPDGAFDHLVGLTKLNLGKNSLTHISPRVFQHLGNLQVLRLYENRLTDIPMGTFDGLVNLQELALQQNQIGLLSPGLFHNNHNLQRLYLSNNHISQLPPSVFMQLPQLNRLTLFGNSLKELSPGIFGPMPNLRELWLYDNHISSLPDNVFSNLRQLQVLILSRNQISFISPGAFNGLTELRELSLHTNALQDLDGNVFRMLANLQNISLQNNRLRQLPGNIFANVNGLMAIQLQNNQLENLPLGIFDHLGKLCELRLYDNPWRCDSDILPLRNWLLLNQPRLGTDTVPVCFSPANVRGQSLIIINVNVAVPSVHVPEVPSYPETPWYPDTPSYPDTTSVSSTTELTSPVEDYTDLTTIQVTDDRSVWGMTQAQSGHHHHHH
Method: (§1) To assess the binding kinetics and affinity of anti-LRRC15 antibodies as well as their species cross-reactivity profile, binding assays were conducted using surface plasmon resonance (SPR). Binding assays were performed on a Biacore T200 instrument at 25° C. using assay buffer HBS EP+, 1 mg/ml BSA, 300 mM NaCl, 0.05% NaN3. Antibodies were captured via anti-human Fc IgGs covalently amine coupled to a CM5 sensor chip and human, mouse and cynomolgus LRRC15 were used as analytes in a concentration series from 1.56-200 nM in multi cycle kinetics mode. […] Obtained sensorgrams were fitted to a 1:1 Langmuir binding model to derive kinetic data.

[2] = biological target: T2, cynomolgus (Macaca fascicularis) LRRC15 extracellular domain with C-terminal His tag (cynomolgus monkey (Macaca fascicularis), UniProt Q8TF66 22-538 (human entry)); test: as above
T2 construct: Recombinant, made in HEK293; the entry holds the extracellular domain and the His tag; SPR analyte; also called TPP-9046
T2 chain: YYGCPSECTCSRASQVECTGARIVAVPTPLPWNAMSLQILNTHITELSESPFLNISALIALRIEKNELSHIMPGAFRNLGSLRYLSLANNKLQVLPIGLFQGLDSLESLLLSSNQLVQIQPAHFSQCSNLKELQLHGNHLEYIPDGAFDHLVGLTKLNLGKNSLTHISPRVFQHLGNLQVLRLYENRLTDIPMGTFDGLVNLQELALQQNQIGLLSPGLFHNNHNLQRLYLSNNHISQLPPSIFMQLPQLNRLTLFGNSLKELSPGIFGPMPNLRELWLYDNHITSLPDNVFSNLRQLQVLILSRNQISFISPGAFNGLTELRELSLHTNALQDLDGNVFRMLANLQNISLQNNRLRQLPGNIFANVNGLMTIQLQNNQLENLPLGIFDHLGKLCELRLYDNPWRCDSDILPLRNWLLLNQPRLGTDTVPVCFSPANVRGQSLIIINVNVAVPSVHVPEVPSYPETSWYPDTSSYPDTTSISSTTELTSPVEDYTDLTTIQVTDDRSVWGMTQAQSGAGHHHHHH
Method: as §1

[3] = biological target: T1, human LRRC15 extracellular domain with …; test: SPR (Example 6), overview table, repeats Table 9; head prints [M^-1]
Method: as §1

[4] = biological target: T2, cynomolgus (Macaca fascicularis) LRRC15 …; test: as above
Method: as §1

[5] = biological target: T1, human LRRC15 extracellular domain with …; test: SPR at 10-37°C (Example 3)
Method: (§2) To assess if anti-LRRC-15 antibodies show a difference in binding at different temperatures, binding assays were conducted using surface plasmon resonance (SPR). Binding assays were performed on a Biacore T200 instrument at temperatures of 10° C., 20° C., 25° C. and 37° C. with assay buffer HBS EP+, 1 mg/ml BSA (bovine serum albumine), 300 mM NaCl, 0.05% NaN₃. Antibodies were captured via anti-human Fc IgGs covalently amine coupled to a CM5 sensor chip and human LRRC15 was used as an analyte in a concentration series from 1.56-200 nM in multi cycle kinetics mode. Pre-experiments were conducted to have an equal capture level at each temperature. Obtained sensorgrams were fitted to a 1:1 Langmuir binding model to derive kinetic data.

[6] = biological target: T1, human LRRC15 extracellular domain with …; test: calculated from SPR kd, 10°C
Method: as §2

[7] = biological target: T1, human LRRC15 extracellular domain with …; test: calculated from SPR kd, 25°C
Method: as §2

[8] = biological target: T1, human LRRC15 extracellular domain with …; test: binding of the purified IgG, method not given
[9] = biological target: T1, human LRRC15 extracellular domain with …; test: SPR Biacore T200, antibody captured, LRRC15 analyte, 10°C
Method: as §2

[10] = biological target: T1, human LRRC15 extracellular domain with …; test: SPR Biacore T200, antibody captured, LRRC15 analyte, 20°C
Method: as §2

[11] = biological target: T1, human LRRC15 extracellular domain with …; test: SPR Biacore T200, antibody captured, LRRC15 analyte, 25°C
Method: as §2

[12] = biological target: T1, human LRRC15 extracellular domain with …; test: calculated from SPR kd, 20°C
Method: as §2

[13] = biological target: T1, human LRRC15 extracellular domain with …; test: SPR thermodynamics (van't Hoff/Eyring), 10-37°C
Method: as §2, with “Thermodynamics help to explain why an interaction is happening and what the driving forces for the interaction are. To” for “To”, “the thermodynamic parameters for anti-LRRC15” for “if anti-LRRC-15”, “antibodies” for “antibodies show a difference in binding at different temperatures,”, “BSA,” for “BSA (bovine serum albumine),”, “NaN3.” for “NaN₃.”, “data. Thermodynamic parameters were obtained using the integrated thermodynamics wizard in the Biacore T200 software. Van′t Hoff and Eyring plots were calculated and plotted and thermodynamic parameters were derived.” for “data.”

[14] = biological target: T1, human LRRC15 extracellular domain with …; test: SPR Biacore T200, antibody captured, LRRC15 analyte, 37°C
Method: as §2

[15] = biological target: T1, human LRRC15 extracellular domain with …; test: calculated from SPR kd, 37°C
Method: as §2

B1: TPP-17405 (antibody, human IgG1, kappa, V domains shown)
VH: EVQLVQSGAEVKKPGASVKVSCKASGYKFSSYWIEWVKQAPGQGLEWIGEILPGSDTTNYNEKFKDRATFTSDTSINTAYMELSRLRSDDTAVYYCARDRGNYRAWFQYWGQGTLVTVSS
VL: DIQMTQSPSSLSASVGDRVTITCRASQRISSYLNWYQQKPGGAPKFLIYYASSLQSGVPSRFSGSGSGTDYTLTISSLQPEDFATYYCDQGLELPWTFGGGTKVEIKR
notes: also called 438H-M345-F05-hIgG1Kappa
Work on B1 yielded a Kd [1] of 0.86 nM, a Kd [2] of 0.78 nM and a Kd [3] of 0.86 nM. The Kd [4] was 0.78 nM.

B2: TPP-17419 (antibody, human IgG1, kappa, V domains shown)
VH: EVQLVQSGAEVKKPGASVKVSCKASGYKFSSYWIEWVKQAPGQGLEWIGEILPGSDWTNYNEKFKDRATFTSDTSINTAYMELSRLRSDDTAVYYCARDRGNYRAWFQYWGQGTLVTVSS
VL: DIQMTQSPSSLSASVGDRVTITCRISQSISSYLNWYQQKPGGAPKFLIYYASSLQSGVPSRFSGSGSGTDYTLTISSLQPEDFATYYCQQGLRLPWTFGGGTKVEIKR
notes: also called 438H-M307-H07-hIgG1Kappa
For B2, the Kd [1] was 3.4 nM, the Kd [2] was 2.5 nM and the Kd [3] was 3.4 nM. The Kd [4] was 2.5 nM.

B3: TPP-17418 (antibody, human IgG1, kappa, V domains shown)
VH: EVQLVQSGAEVKKPGASVKVSCKASGYKFSSYWIEWVKQAPGQGLEWIGEILPGSDWTNYNEKFKDRATFTSDTSINTAYMELSRLRSDDTAVYYCARDRGNYRAWFQYWGQGTLVTVSS
VL: DIQMTQSPSSLSASVGDRVTITCRASQSISSYLNWYQQKPGGAPKFLIYYASSLQSGVPSRFSGSGSGTDYTLTISSLQPEDFATYYCQQGFSLPWTFGGGTKVEIKR
notes: also called 438H-M308-H05_B-hIgG1Kappa
B3 showed a Kd [1] of 1.1 nM, a Kd [2] of 0.99 nM and a Kd [3] of 1.1 nM. The Kd [4] was 0.99 nM.

B4: TPP-1633 (antibody, human IgG1, kappa, V domains shown)
VH: EVQLLESGGGLVQPGGSLRLSCAASGFTFSGYMMQWVRQAPGKGLEWVSGIYPSGGYTNYADSVKGRFTISRDNSKNTLYLQMNSLRAEDTATYYCAREKASDLSGSYSEALDYWGQGTLVTVSS
VL: DIQMTQSPDSLSASVGDRVTITCRASQDVGSWLAWYQQKPGKAPKLLIFAASSLESGIPSRFSGSGSGTDFTLTISSLQPEDFATYYCQQANGFPLTFGGGTKVEIKR
notes: also called 060E-M016-G14-hIgG1
B4 was tested, and the “Temperature dependent loss in binding affinity” value (from here on “Temperature dependent loss”) [5] was greater than 9 fold, the “Complex Half Life” value [6] was 0.138 h and the “Complex Half Life” value [7] was 0.00833 h. It also gave a Kd [8] of roughly 200 nM, a Kd [9] of 18 nM and a Kd [10] of 80 nM. The Kd [11] was 160 nM, the Kd [1] was 150 nM and the Kd [2] was 190 nM. The Kd [3] was 150 nM and the Kd [4] was 190 nM.

B5: TPP-17073 (antibody, human IgG1, kappa, V domains shown)
VH: EVQLLESGGGLVQPGGSLRLSCAASGFTFSGYMMSWVRQAPGKGLEWVSGIYPSAGYTLYADSVKGRFTISRDNSKNTLYLQMNSLRAEDTAVYYCAREKAADLFGSYSEALDYWGQGTLVTVSS
VL: DIQMTQSPDSLSASVGDRVTITCRASQDVGSWLAWYQQKPGKAPKLLIFAASYLESGIPSRFSGSGSGTDFTLTISSLQPEDFATYYCQQANGFPLTFGGGTKVEIKR
notes: also called 438H-M113-N15-hIgG1
In the case of B5, the Kd [1] is reported as 0.21 nM, the Kd [2] is reported as 0.18 nM and the Kd [3] is reported as 0.21 nM. For the same binder, the Kd [4] was 0.18 nM.

B6: TPP-17074 (antibody, human IgG1, kappa, V domains shown)
VH: EVQLLESGGGLVQPGGSLRLSCAASGFTFSGYMMSWVRQAPGKGLEWVSGIYPSGGYALYADSVKGRFTISRDNSKNTLYLQMNSLRAEDTAVYYCAREKAADLFGSYSEALDYWGQGTLVTVSS
VL: DIQMTQSPDSLSASVGDRVTITCRASQDVGSWLAWYQQKPGKAPKLLIFAASYLESGIPSRFSGSGSGTDFTLTISSLQPEDFATYYCQQANGFPLTFGGGTKVEIKR
notes: also called 438H-M161-K22-hIgG1
For B6, the “Temperature dependent loss” value [5] was 33.3 fold, the “Complex Half Life” value [6] was 10.7 h and the “Complex Half Life” value [12] was 3.16 h. The “Complex Half Life” value [7] was 1.6 h, the “-TΔS” value [13] was 9.56 kcal/mol and the “ΔG^0” value [13] was -12.9 kcal/mol. For the same binder, the “ΔH^0” value [13] was -22.7 kcal/mol, the Kd [9] was 0.057 nM and the Kd [10] was 0.14 nM. The Kd [11] was 0.22 nM, the Kd [14] was 1.9 nM and the Kd [1] was 0.19 nM. For the same binder, the Kd [3] was 0.19 nM.

B7: TPP-14392 (antibody, human IgG1, kappa, V domains shown)
VH: EVQLLESGGGLVQPGGSLRLSCAASGFTFSGYMMSWVRQAPGKGLEWVSGIYPSPGYTYYADSVKGRFTISRDNSKNTLYLQMNSLRAEDTAVYYCAREKASDLSGSYSEALDYWGQGTLVTVSS
VL: DIQMTQSPDSLSASVGDRVTITCRASQDVGSWLAWYQQKPGKAPKLLIFAASYLESGIPSRFSGSGSGTDFTLTISSLQPEDFATYYCQQANGFPLTFGGGTKVEIKR
notes: also called 13612-rec05-hIgG1Kappa
With B7 the “Temperature dependent loss” value [5] was 56.9 fold, the “Complex Half Life” value [6] was 3.21 h and the “Complex Half Life” value [12] was 1.48 h. For the same binder, the “Complex Half Life” value [7] was 0.567 h, the “Complex Half Life” value [15] was 2.3 min and the “-TΔS” value [13] was 15.3 kcal/mol. For the same binder, the “ΔG^0” value [13] was -11 kcal/mol, the “ΔH^0” value [13] was -26.3 kcal/mol and the Kd [10] was 2.9 nM. For the same binder, the Kd [11] was 6.8 nM, the Kd [14] was 91 nM and the Kd [1] was 5.9 nM. The Kd [2] was 10 nM, the Kd [3] was 5.9 nM and the Kd [4] was 10 nM.
